# Assay results from patent publication US20200087364A1 (IMMATICS BIOTECHNOLOGIES, published 2020).
# Target: T1, HLA-A*01:01 (human)
# T1 construct: MHC class I monomer first loaded with a UV-sensitive peptide (not identified) that is cleaved by UV irradiation and exchanged for the tested peptide; captured on streptavidin plates, detected with anti-β2m; also called peptide-receptive MHC molecules
# Test: UV-ligand exchange, anti-b2m ELISA
# Procedure, shortened: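 Peptide–MHC complexes made by UV-ligand exchange of a UV-cleavable peptide; exchange yield measured by ELISA on streptavidin-coated plates, samples diluted 100-fold, 1 h 37 °C. Detection with 2 ug/ml HRP anti-β2m, TMB, A450; refolded HLA-A*02:01/MLA-001 monomer standards 15-500 ng/ml.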
row,Binder,peptide exchange yield
1,KPSAVKDSIY,20 to 50%
2,FPAPPAHWFY,20 to 50%
3,AADSNPSEL,20 to 50%

# Next, values leading:
row,peptide exchange yield,Binder
1,20 to 50%,NFSDLVFTY
2,20 to 50%,STIRGELFF
3,20 to 50%,SSDPKAVMF
4,20 to 50%,SITDVDFIY
5,50 to 75%,TTSSAISWILY
